From article PMC7735759, “Structural basis of TRPC4 regulation by calmodulin and pharmacological agents” (eLife, 2020)

Key:
TRPC4 [1] = target: T1, TRPC4 (Danio rerio, UniProt U3N7D8); assay: cryo-EM structure at […] Å; also dose-dependent inhibition of (-)-Englerin A currents in TRPC4-expressing oocytes; assay type: binding
T1 construct: gene trpc4b; residues 2–915
T1 sequence (U3N7D8 2-915): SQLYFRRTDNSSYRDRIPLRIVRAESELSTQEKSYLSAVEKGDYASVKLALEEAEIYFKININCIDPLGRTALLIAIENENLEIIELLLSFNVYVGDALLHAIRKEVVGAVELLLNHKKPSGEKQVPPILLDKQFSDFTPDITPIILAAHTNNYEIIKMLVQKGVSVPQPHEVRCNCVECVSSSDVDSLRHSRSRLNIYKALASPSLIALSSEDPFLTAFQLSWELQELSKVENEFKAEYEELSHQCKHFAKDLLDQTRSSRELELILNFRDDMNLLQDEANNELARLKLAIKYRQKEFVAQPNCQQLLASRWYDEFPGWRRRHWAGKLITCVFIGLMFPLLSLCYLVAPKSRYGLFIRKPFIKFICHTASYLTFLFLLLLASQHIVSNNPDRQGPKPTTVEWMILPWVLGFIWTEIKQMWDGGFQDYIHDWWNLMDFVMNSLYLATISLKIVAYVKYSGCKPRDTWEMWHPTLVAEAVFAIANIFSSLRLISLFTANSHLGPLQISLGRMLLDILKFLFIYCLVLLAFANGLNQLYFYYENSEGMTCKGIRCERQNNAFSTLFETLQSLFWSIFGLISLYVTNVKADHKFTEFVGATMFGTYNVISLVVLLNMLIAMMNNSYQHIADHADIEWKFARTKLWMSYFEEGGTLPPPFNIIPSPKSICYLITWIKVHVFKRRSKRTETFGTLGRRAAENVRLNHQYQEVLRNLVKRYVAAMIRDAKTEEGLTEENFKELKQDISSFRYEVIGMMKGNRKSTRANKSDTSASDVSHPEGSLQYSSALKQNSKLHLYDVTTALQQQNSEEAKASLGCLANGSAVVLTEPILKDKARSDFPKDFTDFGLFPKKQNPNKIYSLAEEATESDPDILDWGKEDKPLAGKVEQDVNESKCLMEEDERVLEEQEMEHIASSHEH

TRPC4 [2] = target: T1, TRPC4; assay: as above; assay type: binding; remark: listed apart in the source
TRPC4 [3] = target: T1, TRPC4; assay: as above; assay type: binding; remark: listed apart in the source
[4] = target: Zebrafish TRPC4 (Danio rerio TRPC4, residues 2-915) (Danio rerio (zebrafish)); assay: cryo-EM structure; TRPC4-CaM complex in LMNG, 10 mM calcium chloride, 10 µM CaM added; 3D sorting without symmetry for the stoichiometries
[5] = target: Zebrafish TRPC4 (Danio rerio TRPC4, residues 2-915) (Danio rerio (zebrafish)); assay: cryo-EM structure; TRPC4 alone: apo in LMNG, and in amphipols with 100 µM GFB-8438, GFB-9289 or GFB-8749; C4 symmetry

O=C1CN(c2cn[nH]c(=O)c2Cl)CCN1Cc1ccccc1C(F)(F)F [GFB-8438]
cryo-EM structure at 3.6 Å; also dose-dependent inhibition of (-)-Englerin A cur (TRPC4 [1]): The shape of the density clearly indicated that it corresponds to the bound inhibitor.

O=C1CN(c2cn[nH]c(=O)c2Cl)CCN1CC1CCC(F)(F)CC1 [GFB-8749]
cryo-EM structure at 3.8 Å; also dose-dependent inhibition of (-)-Englerin A cur (TRPC4 [2]): an extra density was observed inside the VSL domain region of GFB-8749-bound TRPC4

O=C1CN(c2cn[nH]c(=O)c2Cl)CCN1C1CCCCC1 [GFB-9289, 4-chloro-5-(4-cyclohexyl-3-oxopiperazin-1-yl)-2,3-dihydropyridazin-3-one]
cryo-EM structure at 3.2 Å; also dose-dependent inhibition of (-)-Englerin A cur (TRPC4 [3]): we found an extra density inside the VSL domain region of GFB-9289-bound TRPC4

Mouse calmodulin (CaM) (from UniProt P0DP26 1-149) (natural protein)
percent of TRPC4 channels with four CaM bound (fully saturated) [4]: 20% | percent of TRPC4 channels with one CaM bound [4]: 13% | percent of TRPC4 channels with three CaM bound [4]: 31% | percent of TRPC4 channels with two CaM bound [4]: 35% | stoichiometry N (CaM per TRPC4 tetramer) [4]: < 4

Zebrafish TRPC4 (Danio rerio TRPC4, residues 2-915) (natural protein)
stoichiometry N [4]: 4 | stoichiometry N [5]: 4
